Assay results published in patent US20140341931A1.

How the values were obtained:
[1] = molecular target: recombinant sCD27 containing 6x his-Tag at the carboxyl terminus (human) (UniProt P26842); experiment: mock depletion on plate coated with control IgG, sCD27 ELISA of the supernatant
[2] = molecular target: High mobility group protein B1 (human) (UniProt P09429); experiment: PolyHis pull-down with sCD27-his as bait from lysate of stimulated PBMCs, SDS-PAGE, mass spectrometry
Myosin IIA (human) [3] = molecular target: Myosin IIA (human) (UniProt P35579); experiment: as above
[4] = molecular target: High mobility group protein B1 (human) (UniProt P09429); experiment: control (background) lane of the PolyHis pull-down, no bait peptides detected, mass spectrometry
Myosin IIA (human) [5] = molecular target: Myosin IIA (human) (UniProt P35579); experiment: as above

Sequence of Myosin IIA (human) (P35579 2-1960 limits assumed): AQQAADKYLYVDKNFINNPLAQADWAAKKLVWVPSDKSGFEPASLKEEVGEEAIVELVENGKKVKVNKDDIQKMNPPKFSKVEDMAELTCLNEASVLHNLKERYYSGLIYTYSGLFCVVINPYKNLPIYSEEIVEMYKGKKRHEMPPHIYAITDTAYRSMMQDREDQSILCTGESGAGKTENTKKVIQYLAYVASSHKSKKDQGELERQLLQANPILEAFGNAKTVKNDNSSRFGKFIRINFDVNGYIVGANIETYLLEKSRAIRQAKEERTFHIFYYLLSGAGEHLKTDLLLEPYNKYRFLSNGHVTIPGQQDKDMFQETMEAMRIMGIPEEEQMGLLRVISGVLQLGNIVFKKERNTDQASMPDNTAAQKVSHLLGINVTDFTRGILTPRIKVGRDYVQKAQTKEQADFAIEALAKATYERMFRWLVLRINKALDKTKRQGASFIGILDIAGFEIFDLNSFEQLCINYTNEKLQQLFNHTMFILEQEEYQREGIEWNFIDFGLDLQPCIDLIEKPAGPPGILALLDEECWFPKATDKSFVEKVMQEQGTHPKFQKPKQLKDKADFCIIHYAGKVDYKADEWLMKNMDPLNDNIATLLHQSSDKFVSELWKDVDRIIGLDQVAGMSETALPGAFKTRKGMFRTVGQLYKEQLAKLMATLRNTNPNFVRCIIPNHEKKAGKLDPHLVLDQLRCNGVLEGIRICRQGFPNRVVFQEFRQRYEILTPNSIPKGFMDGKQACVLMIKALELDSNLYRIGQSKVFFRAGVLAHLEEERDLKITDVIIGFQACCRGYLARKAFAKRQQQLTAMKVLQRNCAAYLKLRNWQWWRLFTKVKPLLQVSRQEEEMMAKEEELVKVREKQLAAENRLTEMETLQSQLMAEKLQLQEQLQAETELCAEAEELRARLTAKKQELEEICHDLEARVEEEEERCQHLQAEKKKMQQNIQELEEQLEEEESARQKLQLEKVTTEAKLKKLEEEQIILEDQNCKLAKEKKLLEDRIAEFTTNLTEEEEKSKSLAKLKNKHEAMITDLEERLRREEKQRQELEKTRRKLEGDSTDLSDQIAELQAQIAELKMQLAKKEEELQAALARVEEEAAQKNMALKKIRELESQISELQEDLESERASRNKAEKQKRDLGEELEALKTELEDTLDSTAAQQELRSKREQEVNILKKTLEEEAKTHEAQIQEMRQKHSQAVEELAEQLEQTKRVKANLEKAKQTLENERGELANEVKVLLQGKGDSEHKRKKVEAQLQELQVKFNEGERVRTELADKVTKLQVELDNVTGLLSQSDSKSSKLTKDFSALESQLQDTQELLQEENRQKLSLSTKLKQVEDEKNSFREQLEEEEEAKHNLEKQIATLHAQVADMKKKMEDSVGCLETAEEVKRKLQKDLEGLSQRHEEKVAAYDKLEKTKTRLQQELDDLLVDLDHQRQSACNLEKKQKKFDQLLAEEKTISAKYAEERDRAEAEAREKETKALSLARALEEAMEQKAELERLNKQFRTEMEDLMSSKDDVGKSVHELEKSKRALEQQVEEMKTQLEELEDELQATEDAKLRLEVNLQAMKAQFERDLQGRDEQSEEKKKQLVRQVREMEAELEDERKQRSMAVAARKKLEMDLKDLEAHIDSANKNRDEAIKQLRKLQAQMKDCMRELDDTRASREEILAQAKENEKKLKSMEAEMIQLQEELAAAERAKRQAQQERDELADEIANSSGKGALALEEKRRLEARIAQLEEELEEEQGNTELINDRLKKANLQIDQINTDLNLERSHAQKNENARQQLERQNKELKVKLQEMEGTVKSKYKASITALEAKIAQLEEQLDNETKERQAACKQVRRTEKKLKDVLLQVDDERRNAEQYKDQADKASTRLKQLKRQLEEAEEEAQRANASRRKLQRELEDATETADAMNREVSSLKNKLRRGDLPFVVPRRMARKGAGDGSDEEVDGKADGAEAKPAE
Sequence of High mobility group protein B1 (human) (P09429 whole entry): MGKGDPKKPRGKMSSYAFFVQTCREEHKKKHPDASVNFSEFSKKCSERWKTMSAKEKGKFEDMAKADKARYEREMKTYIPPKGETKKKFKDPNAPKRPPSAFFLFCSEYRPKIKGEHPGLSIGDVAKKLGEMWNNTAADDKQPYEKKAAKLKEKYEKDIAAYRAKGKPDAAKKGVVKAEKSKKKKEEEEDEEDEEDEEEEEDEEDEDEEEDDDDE

| sCD27 value left after depletion [1] | TPC (total peptide count) in Lane 2 (positive) [2] | TPC (total peptide count) in Lane 2 (positive) (Myosin IIA (human) [3]) | TPC (total peptide count) in Lane 4 (background) [4] | TPC (total peptide count) in Lane 4 (background) (Myosin IIA (human) [5]) | Substance |
| --- | --- | --- | --- | --- | --- |
| 1.4 ng/mL |  |  |  |  | IgG control (R&D Systems Inc.) (antibody) |
|  | 44 peptides | 79 peptides | 5 peptides | 14 peptides | recombinant sCD27 containing 6x his-Tag at the carboxyl terminus (from UniProt P26842 20-189) (receptor) |
